Test results from patent publication US20110212094A1 (AbbVie / Abbott, published 2011).

T1: Recombinant Human SOST (human, UniProt Q9BQB4 24-213)
T1 construct: R&D reagent in Biacore; also called sclerostin; Human sclerostin (Abbott PR-1261069)
T1 sequence (looked up): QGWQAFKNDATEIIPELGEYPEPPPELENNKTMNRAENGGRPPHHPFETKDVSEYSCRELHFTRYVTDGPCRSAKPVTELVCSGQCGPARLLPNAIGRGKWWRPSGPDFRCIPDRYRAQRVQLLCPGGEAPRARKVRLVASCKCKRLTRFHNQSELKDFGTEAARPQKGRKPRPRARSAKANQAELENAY


Tests used:
[1] = target: NGF (Neuroscreen-1 bioassay); assay: cell-based or functional assay
Recombinant Human β-NGF [2] = target: T2, Recombinant Human β-NGF (human, UniProt P01138 122-239, limits assumed); assay: Biacore SPR
T2 construct: Bought reagent used in the Biacore analyses
Method: (§1) The BIACORE assay (Biacore, Inc, Piscataway, N.J.) determines the affinity of antibodies or DVD-Ig with kinetic measurements of on-rate and off-rate constants. Binding of antibodies or DVD-Ig to a target antigen (for example, a purified recombinant target antigen) is determined by surface plasmon resonance-based measurements with a Biacore® 1000 or 3000 instrument (Biacore® AB, Uppsala, Sweden) using running HBS-EP (10 mM HEPES [pH 7.4], 150 mM NaCl, 3 mM EDTA, and 0.005% surfactant P20) at 25° C. All chemicals are obtained from Biacore® AB (Uppsala, Sweden) or otherwise from a different source as described in the text. For example, approximately 5000 RU of goat anti-mouse IgG, (Fcγ), fragment specific polyclonal antibody (Pierce Biotechnology Inc, Rockford, Ill.) diluted in 10 mM sodium acetate (pH 4.5) is directly immobilized across a CM5 research grade biosensor chip using a standard amine coupling kit according to manufacturer's instructions and procedures at 25 μg/ml. Unreacted moieties on the biosensor surface are blocked with ethanolamine. Modified carboxymethyl dextran surface in flowcell 2 and 4 is used as a reaction surface. Unmodified carboxymethyl dextran without goat anti-mouse IgG in flow cell 1 and 3 is used as the reference surface. For kinetic analysis, rate equations derived from the 1:1 Langmuir binding model are fitted simultaneously to association and dissociation phases of all eight injections (using global fit analysis) with the use of Biaevaluation 4.0.1 software. Purified antibodies or DVD-Ig are diluted in HEPES-buffered saline for capture across goat anti-mouse IgG specific reaction surfaces. Antibodies or DVD-Ig to be captured as a ligand (25 μg/ml) are injected over reaction matrices at a flow rate of 5 μl/min. The association and dissociation rate constants, kₘ (M⁻¹s⁻¹) and koff (s⁻¹) are determined under a continuous flow rate of 25 μl/min. Rate constants are derived by making kinetic binding measurements at different antigen concentrations ranging from 10-200 nM. The equilibrium dissociation constant (M) of the reaction between antibodies or DVD-Igs and the target antigen is then calculated from the kinetic rate constants by the following formula: KD=koff/kₒₙ. Binding is recorded as a function of time and kinetic rate constants are calculated.

[3] = target: T3, Recombinant Human TNF-α/TNFSF1A (human, UniProt P01375 77-233); assay: Biacore SPR
T3 construct: Bought reagent for Biacore; also called huTNFα
Method: as §1

[4] = target: T3, Recombinant Human TNF-α/TNFSF1A; assay: cell-based or functional assay
Recombinant Human SOST = target: T1, Recombinant Human SOST; assay: Biacore SPR
Method: as §1

Recombinant Human β-NGF [5] = target: T2, Recombinant Human β-NGF; assay: Biacore SPR; 25 C, HBS-EP pH 7.4; antibody captured on the chip, antigen 10-200 nM in flow
Method: The BIACORE assay (Biacore, Inc, Piscataway, N.J.) determines the affinity of antibodies or DVD-Ig with kinetic measurements of on-rate and off-rate constants. Binding of antibodies or DVD-Ig to a target antigen (for example, a purified recombinant target antigen) is determined by surface plasmon resonance-based measurements with a Biacore® 1000 or 3000 instrument (Biacore® AB, Uppsala, Sweden) using running HBS-EP (10 mM HEPES [pH 7.4], 150 mM NaCl, 3 mM EDTA, and 0.005% surfactant P20) at 25° C. All chemicals are obtained from Biacore® AB (Uppsala, Sweden) or otherwise from a different source as described in the text. […] The association and dissociation rate constants, kₘ (M⁻¹s⁻¹) and koff (s⁻¹) are determined under a continuous flow rate of 25 μl/min. […] The equilibrium dissociation constant (M) of the reaction between antibodies or DVD-Igs and the target antigen is then calculated from the kinetic rate constants by the following formula: KD=koff/kₒₙ. Binding is recorded as a function of time and kinetic rate constants are calculated.

T3 sequence (P01375 77-233 limits assumed): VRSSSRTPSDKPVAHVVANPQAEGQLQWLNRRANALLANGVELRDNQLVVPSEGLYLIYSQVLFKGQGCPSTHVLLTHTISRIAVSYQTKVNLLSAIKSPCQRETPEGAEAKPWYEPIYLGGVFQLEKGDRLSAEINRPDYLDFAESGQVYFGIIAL
T2 sequence (P01138 122-239 limits assumed): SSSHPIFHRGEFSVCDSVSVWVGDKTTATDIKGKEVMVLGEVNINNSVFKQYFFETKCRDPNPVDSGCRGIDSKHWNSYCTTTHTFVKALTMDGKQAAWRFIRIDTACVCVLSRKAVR

| Binder | N-Terminal VD NGF Inhibition Assay EC50 pM (ERK1/2 phosphorylation, Neuroscreen-1 cells) [1] [pM] | Kd (Recombinant Human β-NGF [2]) [nM] | koff (Recombinant Human β-NGF [2]) [s⁻¹] | kon (Recombinant Human β-NGF [2]) [M⁻¹ s⁻¹] | Kd [3] [nM] | koff [3] [s⁻¹] | kon [3] [M⁻¹ s⁻¹] | C-terminal VD TNFα Neutralization Assay EC50 nM (L929 cells) [4] [nM] | Kd (Recombinant Human SOST) [nM] | koff (Recombinant Human SOST) [s⁻¹] | kon (Recombinant Human SOST) [M⁻¹ s⁻¹] | NGF Inhibition Assay EC50 pM (ERK1/2 phosphorylation, Neuroscreen-1 cells) [1] [pM] | Kd (Recombinant Human β-NGF [5]) [pM] | N-terminal VD TNFα Neutralization Assay EC50 nM (L929 cells) [4] [nM] |
| --- | --- | --- | --- | --- | --- | --- | --- | --- | --- | --- | --- | --- | --- | --- |
| DVD1233 (bispecific antibody, human IgG1, kappa, constant regions from vectors V1/V2; also called DVD1233H; DVD1233L) heavy: not shown light: DIQMTQSPSSLSASVGDRVTITCRASQSISNNLNWYQQKPGKAPKLLIYYTSRFHSGVPSRFSGSGSGTDFTFTISSLQPEDIATYYCQQEHTLPYTFGQGTKLEIKRTVAAPDIVMTQSHKFMSTTVGDRVSITCKASQAVSSAVAWYQQKPGQSPKLLIYWASTRHTGVPDRFTGSGSVTDFTLTIHNLQAEDLALYYCQQHYSTPFTFGSGTKLEIKRTVAAPSVFIFPPSDEQLKSGTASVVCLLNNFYPREAKVQWKVDNALQSGNSQESVTEQDSKDSTYSLSSTLTLSKADYEKHKVYACEVTHQGLSSPVTKSFNRGEC | 62 | 0.0217 | 1.82e-05 | 840000 | 0.115 | 2.82e-05 | 244000 | 42.4 |  |  |  |  |  |  |
| DVD1249 (bispecific antibody, human IgG1, kappa, constant regions from vectors V1/V2; also called DVD1249H; DVD1249L) heavy: not shown light: DVQMIQSPSSLSASLGDIVTMTCQASQGTSINLNWFQQKPGKAPKLLIYGSSNLEDGVPSRFSGSRYGTDFTLTISSLEDEDLATYFCLQHSYLPYTFGGGTKLEIKRTVAAPDIQMTQSPSSLSASVGDRVTITCRASQGIRIDLGWYQQKPGKAPKRLIYAASTLQSGVPSRFSGSGSGTEFIFTISSLQPEDFASYYCLQHKSYPLTFGGGTKVEIKRTVAAPSVFIFPPSDEQLKSGTASVVCLLNNFYPREAKVQWKVDNALQSGNSQESVTEQDSKDSTYSLSSTLTLSKADYEKHKVYACEVTHQGLSSPVTKSFNRGEC |  |  |  |  | 0.389 | 0.000253 | 649000 | 5.42 | 0.017 | 0.000159 | 9.42e+06 |  |  |  |
| AB020 (antibody, V domains shown, Parent anti-NGF antibody; also called NGF; AB020VH) VH: QVQLQESGPGLVKPSETLSLTCTVSGFSLIGYDLNWIRQPPGKGLEWIGIIWGDGTTDYNSAVKSRVTISKDTSKNQFSLKLSSVTAADTAVYYCARGGYWYATSYYFDYWGQGTLVTVSS VL: DIQMTQSPSSLSASVGDRVTITCRASQSISNNLNWYQQKPGKAPKLLIYYTSRFHSGVPSRFSGSGSGTDFTFTISSLQPEDIATYYCQQEHTLPYTFGQGTKLEIKR |  |  | 4.08e-06 | 606000 |  |  |  |  |  |  |  | 53 | 6.73 |  |
| DVD1251 (bispecific antibody, human IgG1, kappa, constant regions from vectors V1/V2; also called DVD1251H; DVD1251L) heavy: not shown light: DIQMTQSPSSLSASVGDRVTITCRASQSISNNLNWYQQKPGKAPKLLIYYTSRFHSGVPSRFSGSGSGTDFTFTISSLQPEDIATYYCQQEHTLPYTFGQGTKLEIKRTVAAPDIQMTQSPSSLSASVGDRVTITCRASQGIRIDLGWYQQKPGKAPKRLIYAASTLQSGVPSRFSGSGSGTEFIFTISSLQPEDFASYYCLQHKSYPLTFGGGTKVEIKRTVAAPSVFIFPPSDEQLKSGTASVVCLLNNFYPREAKVQWKVDNALQSGNSQESVTEQDSKDSTYSLSSTLTLSKADYEKHKVYACEVTHQGLSSPVTKSFNRGEC | 95 | 0.0139 | 1.17e-05 | 842000 | 0.0894 | 5.73e-05 | 641000 | 8.02 |  |  |  |  |  |  |
| DVD1226 (bispecific antibody, human IgG1, kappa, constant regions from vectors V1/V2; also called DVD1226H; DVD1226L) heavy: not shown light: DIVMTQSHKFMSTTVGDRVSITCKASQAVSSAVAWYQQKPGQSPKLLIYWASTRHTGVPDRFTGSGSVTDFTLTIHNLQAEDLALYYCQQHYSTPFTFGSGTKLEIKRTVAAPDVQMIQSPSSLSASLGDIVTMTCQASQGTSINLNWFQQKPGKAPKLLIYGSSNLEDGVPSRFSGSRYGTDFTLTISSLEDEDLATYFCLQHSYLPYTFGGGTKLEIKRTVAAPSVFIFPPSDEQLKSGTASVVCLLNNFYPREAKVQWKVDNALQSGNSQESVTEQDSKDSTYSLSSTLTLSKADYEKHKVYACEVTHQGLSSPVTKSFNRGEC |  |  |  |  | 0.0288 | 0.000116 | 4.02e+06 |  | 2.71 | 0.000199 | 73400 |  |  | 0.0409 |
